Values of other authors in US20080279771A1, “Novel Imaging Agents for Cancer” (GE HEALTHCARE LIMITED, priority 2005, published 2008).

Molecular target: neuropilin-1 receptor (NP-1) (Homo sapiens, UniProt O14786)
Details: NP-1 on tumour cells; read-out: Kd of binding of SEM-3A to NP-1

neuropilin-1 receptor (NP-1), sequence (O14786 22-923): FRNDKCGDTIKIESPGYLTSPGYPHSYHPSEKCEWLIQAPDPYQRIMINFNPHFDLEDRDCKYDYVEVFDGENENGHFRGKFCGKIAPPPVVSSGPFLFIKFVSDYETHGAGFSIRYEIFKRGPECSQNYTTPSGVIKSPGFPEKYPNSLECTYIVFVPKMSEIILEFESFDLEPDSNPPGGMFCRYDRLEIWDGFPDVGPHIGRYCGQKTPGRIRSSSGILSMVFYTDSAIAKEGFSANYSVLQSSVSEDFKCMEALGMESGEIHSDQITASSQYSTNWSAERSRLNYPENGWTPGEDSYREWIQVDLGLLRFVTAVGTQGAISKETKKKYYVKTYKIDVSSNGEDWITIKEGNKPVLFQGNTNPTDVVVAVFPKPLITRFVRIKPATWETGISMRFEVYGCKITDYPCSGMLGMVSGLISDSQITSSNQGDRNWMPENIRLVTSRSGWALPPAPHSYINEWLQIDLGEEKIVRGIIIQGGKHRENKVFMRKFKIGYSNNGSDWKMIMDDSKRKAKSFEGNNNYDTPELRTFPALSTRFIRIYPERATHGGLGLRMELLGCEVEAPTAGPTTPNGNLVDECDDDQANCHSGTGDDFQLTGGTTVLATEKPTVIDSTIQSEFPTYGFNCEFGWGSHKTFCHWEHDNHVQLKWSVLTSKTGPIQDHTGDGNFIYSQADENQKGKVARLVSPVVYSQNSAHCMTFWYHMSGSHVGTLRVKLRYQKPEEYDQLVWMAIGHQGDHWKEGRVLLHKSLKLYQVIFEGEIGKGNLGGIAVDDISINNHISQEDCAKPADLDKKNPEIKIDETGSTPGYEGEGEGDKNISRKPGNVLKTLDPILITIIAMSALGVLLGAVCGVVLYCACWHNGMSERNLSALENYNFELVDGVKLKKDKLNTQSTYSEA

B1: SEM-3A: Semaphorin-3A, biological peptide that binds the neuropilin-1 receptor; human precursor form consists of 771 amino acids (protein, UniProt Q14563 21-771, looked up)
Semaphorin-3A: NYQNGKNNVPRLKLSYKEMLESNNVITFNGLANSSSYHTFLLDEERSRLYVGAKDHIFSFDLVNIKDFQKIVWPVSYTRRDECKWAGKDILKECANFIKVLKAYNQTHLYACGTGAFHPICTYIEIGHHPEDNIFKLENSHFENGRGKSPYDPKLLTASLLIDGELYSGTAADFMGRDFAIFRTLGHHHPIRTEQHDSRWLNDPKFISAHLISESDNPEDDKVYFFFRENAIDGEHSGKATHARIGQICKNDFGGHRSLVNKWTTFLKARLICSVPGPNGIDTHFDELQDVFLMNFKDPKNPVVYGVFTTSSNIFKGSAVCMYSMSDVRRVFLGPYAHRDGPNYQWVPYQGRVPYPRPGTCPSKTFGGFDSTKDLPDDVITFARSHPAMYNPVFPMNNRPIVIKTDVNYQFTQIVVDRVDAEDGQYDVMFIGTDVGTVLKVVSIPKETWYDLEEVLLEEMTVFREPTAISAMELSTKQQQLYIGSTAGVAQLPLHRCDIYGKACAECCLARDPYCAWDGSACSRYFPTAKRRTRRQDIRNGDPLTHCSDLHHDNHHGHSPEERIIYGVENSSTFLECSPKSQRALVYWQFQRRNEERKEEIRVDDHIIRTDQGLLLRSLQQKDSGNYLCHAVEHGFIQTLLKVTLEVIDTEHLEELLHKDDDGDGSKTKEMSNSMTPSQKVWYRDFMQLINHPNLNTMDEFCEQVWKRDRKQRRQRPGHTPGNSNKWKHLQENKKGRNRRTHEFERAPRSV
- Kd: ~0.28 nM
